The text below walks through data of article PMC3284002 (The Journal of Cell Biology, 2012).

The labels stand for the following.
T1: KNL-1^1–505–6xHis, wild type (C. elegans, UniProt P34278 1-505)
T1 sequence: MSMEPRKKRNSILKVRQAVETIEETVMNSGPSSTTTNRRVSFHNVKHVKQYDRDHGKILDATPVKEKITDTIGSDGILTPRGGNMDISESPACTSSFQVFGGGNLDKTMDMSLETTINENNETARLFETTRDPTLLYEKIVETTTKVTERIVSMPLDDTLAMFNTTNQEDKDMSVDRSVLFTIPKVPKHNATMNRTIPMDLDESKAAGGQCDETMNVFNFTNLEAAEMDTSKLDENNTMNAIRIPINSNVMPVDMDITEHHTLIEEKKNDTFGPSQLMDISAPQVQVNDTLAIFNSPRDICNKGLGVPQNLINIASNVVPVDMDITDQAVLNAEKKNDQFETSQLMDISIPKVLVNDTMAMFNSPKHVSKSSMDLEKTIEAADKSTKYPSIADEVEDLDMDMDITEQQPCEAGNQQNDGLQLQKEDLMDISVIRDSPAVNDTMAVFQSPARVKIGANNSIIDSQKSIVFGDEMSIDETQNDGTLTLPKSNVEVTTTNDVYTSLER

B1: GST–GSP-2 (enzyme)
chain: MDVEKLNLDNIISRLLEVRGSKPGKNVQLTESEIKGLCQKSREIFLSQPILLELEAPLKICGDVHGQYYDLLRLFEYGGFPPESNYLFLGDYVDRGKQSLETICLLLAYKIKYPENFFLLRGNHECASINRIYGFYDECKRRYNIKLWKTFTDCFNCLPVAAIIDEKIFCCHGGLSPDLQSMEQIRRIMRPTDVPDQGLLCDLLWSDPDKDVTGWGENDRGVSFTFGPEVVAKFLHKHDLDLICRAHQVVEDGYEFFAKRQLVTLFSAPNYCGEFDNAGSMMTVDETLMCSFQILKPADKKKYPYGAGGVGSNRPVTPPRNAPAAQPKKGAKK
B2: KNL-1^1–505–6xHis Δ9 (domain or fragment)
chain: NSILKVRQAVETIEETVMNSGPSSTTTNRRVSFHNVKHVKQYDRDHGKILDATPVKEKITDTIGSDGILTPRGGNMDISESPACTSSFQVFGGGNLDKTMDMSLETTINENNETARLFETTRDPTLLYEKIVETTTKVTERIVSMPLDDTLAMFNTTNQEDKDMSVDRSVLFTIPKVPKHNATMNRTIPMDLDESKAAGGQCDETMNVFNFTNLEAAEMDTSKLDENNTMNAIRIPINSNVMPVDMDITEHHTLIEEKKNDTFGPSQLMDISAPQVQVNDTLAIFNSPRDICNKGLGVPQNLINIASNVVPVDMDITDQAVLNAEKKNDQFETSQLMDISIPKVLVNDTMAMFNSPKHVSKSSMDLEKTIEAADKSTKYPSIADEVEDLDMDMDITEQQPCEAGNQQNDGLQLQKEDLMDISVIRDSPAVNDTMAVFQSPARVKIGANNSIIDSQKSIVFGDEMSIDETQNDGTLTLPKSNVEVTTTNDVYTSLER

For series [1], the target named is T1, KNL-1^1–505–6xHis, wild type. The experiment in a line: pull-down.
For the series “KNL-1^1–505–6xHis Δ9”, the target named is B2. The experiment in a line: pull-down.
The series “SEC” concerns the molecule itself. The experiment in a line: SEC.

With B1, the binding result (in series [1]; with KNL-1^1–505–6xHis Δ9) was “binds” throughout.
As to B2, the binding result in the series “SEC” is listed as “binds”.
